Measurements published in article PMC5670239 (2017).

T1: NELF-E 244-380 (Homo sapiens, UniProt P18615)
T1 chain: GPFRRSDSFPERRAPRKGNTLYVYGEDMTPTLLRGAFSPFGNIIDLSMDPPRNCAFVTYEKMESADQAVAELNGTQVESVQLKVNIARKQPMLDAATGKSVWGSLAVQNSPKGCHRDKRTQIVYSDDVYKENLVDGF

T2: ARS2 763-871 (Homo sapiens, UniProt Q9BXP5)
T2 chain: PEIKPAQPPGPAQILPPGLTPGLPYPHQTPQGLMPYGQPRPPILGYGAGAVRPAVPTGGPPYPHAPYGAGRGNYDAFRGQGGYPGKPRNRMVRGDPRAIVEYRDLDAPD

T3: NELF-E 360-380 (Homo sapiens, UniProt P18615, m7GTP)
T3 chain: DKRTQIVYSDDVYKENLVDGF

T4: ARS2 845-871 (Homo sapiens, UniProt Q9BXP5, m7GTP)
T4 chain: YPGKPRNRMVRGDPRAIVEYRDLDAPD

T5: PHAX 103-308 (Homo sapiens, UniProt Q9H814)
T5 chain: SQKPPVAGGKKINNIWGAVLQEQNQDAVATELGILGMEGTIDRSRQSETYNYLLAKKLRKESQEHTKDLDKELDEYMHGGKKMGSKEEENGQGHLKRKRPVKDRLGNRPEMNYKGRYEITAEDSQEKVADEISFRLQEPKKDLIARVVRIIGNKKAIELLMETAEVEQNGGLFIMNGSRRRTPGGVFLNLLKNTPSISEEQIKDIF

T6: ARS2 827-871 (Homo sapiens, UniProt Q9BXP5, m7GTP)
T6 chain: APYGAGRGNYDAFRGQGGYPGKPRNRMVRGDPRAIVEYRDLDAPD


Assays:
Test in all cases: ITC
NELF-E 244-380 = molecular target: T1, NELF-E 244-380
ARS2 763-871 = molecular target: T2, ARS2 763-871
PHAX = PHAX (Homo sapiens, UniProt Q9H814)
Sequence of PHAX (Q9H814 2-394): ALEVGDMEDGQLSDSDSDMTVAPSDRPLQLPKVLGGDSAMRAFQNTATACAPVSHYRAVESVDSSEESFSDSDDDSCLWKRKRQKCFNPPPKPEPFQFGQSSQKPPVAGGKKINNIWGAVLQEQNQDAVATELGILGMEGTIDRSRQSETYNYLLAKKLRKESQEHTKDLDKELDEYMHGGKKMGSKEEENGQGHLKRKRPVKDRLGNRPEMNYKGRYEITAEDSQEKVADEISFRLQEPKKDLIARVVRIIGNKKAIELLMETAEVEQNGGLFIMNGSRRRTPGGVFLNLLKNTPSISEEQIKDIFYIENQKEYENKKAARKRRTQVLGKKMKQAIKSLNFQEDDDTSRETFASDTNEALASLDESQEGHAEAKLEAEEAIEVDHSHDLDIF

NELF-E 360-380 = molecular target: T3, NELF-E 360-380
ARS2 845-871 = molecular target: T4, ARS2 845-871
PHAX 103-308 = molecular target: T5, PHAX 103-308
ARS2 827-871 = molecular target: T6, ARS2 827-871

| Kd (NELF-E 244-380) [nM] | Kd (ARS2 763-871) [nM] | Kd (PHAX) [nM] | Kd (NELF-E 360-380) [nM] | Kd (ARS2 845-871) [nM] | Kd (PHAX 103-308) [nM] | Kd (ARS2 827-871) [nM] | Binder |
| --- | --- | --- | --- | --- | --- | --- | --- |
| ~50 | 1000 | – | – | – | – | – | CBC (protein, m7GTP) chain 1: MSRRRHSDENDGGQPHKRRKTSDANETEDHLESLICKVGEKSACSLESNLEGLAGVLEADLPNYKSKILRLLCTVARLLPEKLTIYTTLVGLLNARNYNFGGEFVEAMIRQLKESLKANNYNEAVYLVRFLSDLVNCHVIAAPSMVAMFENFVSVTQEEDVPQVRRDWYVYAFLSSLPWVGKELYEKKDAEMDRIFANTESYLKRRQKTHVPMLQVWTADKPHPQEEYLDCLWAQIQKLKKDRWQERHILRPYLAFDSILCEALQHNLPPFTPPPHTEDSVYPMPRVIFRMFDYTDDPEGPVMPGSHSVERFVIEENLHCIIKSHWKERKTCAAQLVSYPGKNKIPLNYHIVEVIFAELFQLPAPPHIDVMYTTLLIELCKLQPGSLPQVLAQATEMLYMRLDTMNTTCVDRFINWFSHHLSNFQFRWSWEDWSDCLSQDPESPKPKFVREVLEKCMRLSYHQRILDIVPPTFSALCPANPTCIYKYGDESSNSLPGHSVALCLAVAFKSKATNDEIFSILKDVPNPNQDDDDDEGFSFNPLKIEVFVQTLLHLAAKSFSHSFSALAKFHEVFKTLAESDEGKLHVLRVMFEVWRNHPQMIAVLVDKMIRTQIVDCAAVANWIFSSELSRDFTRLFVWEILHSTIRKMNKHVLKIQKELEEAKEKLARQHKRRSDDDDRSSDRKDGVLEEQIERLQEKVESAQSEQKNLFLVIFQRFIMILTEHLVRCETDGTSVLTPWYKNCIERLQQIFLQHHQIIQQYMVTLENLLFTAELDPHILAVFQQFCALQA chain 2: SGGLLKALRSDSYVELSQYRDQHFRGDNEEQEKLLKKSCTLYVGNLSFYTTEEQIYELFSKSGDIKKIIMGLDKMKKTACGFCFVEYYSRADAENAMRYINGTRLDDRIIRTDWDAGFKEGRQYGRGRSGGQVRDEYRQDYDAGRGGYGKLAQNQ |
| ~400 | – | 300 | ~3300 | 1100 | 600 | 1000 | CBC (protein) chain 1: MSRRRHSDENDGGQPHKRRKTSDANETEDHLESLICKVGEKSACSLESNLEGLAGVLEADLPNYKSKILRLLCTVARLLPEKLTIYTTLVGLLNARNYNFGGEFVEAMIRQLKESLKANNYNEAVYLVRFLSDLVNCHVIAAPSMVAMFENFVSVTQEEDVPQVRRDWYVYAFLSSLPWVGKELYEKKDAEMDRIFANTESYLKRRQKTHVPMLQVWTADKPHPQEEYLDCLWAQIQKLKKDRWQERHILRPYLAFDSILCEALQHNLPPFTPPPHTEDSVYPMPRVIFRMFDYTDDPEGPVMPGSHSVERFVIEENLHCIIKSHWKERKTCAAQLVSYPGKNKIPLNYHIVEVIFAELFQLPAPPHIDVMYTTLLIELCKLQPGSLPQVLAQATEMLYMRLDTMNTTCVDRFINWFSHHLSNFQFRWSWEDWSDCLSQDPESPKPKFVREVLEKCMRLSYHQRILDIVPPTFSALCPANPTCIYKYGDESSNSLPGHSVALCLAVAFKSKATNDEIFSILKDVPNPNQDDDDDEGFSFNPLKIEVFVQTLLHLAAKSFSHSFSALAKFHEVFKTLAESDEGKLHVLRVMFEVWRNHPQMIAVLVDKMIRTQIVDCAAVANWIFSSELSRDFTRLFVWEILHSTIRKMNKHVLKIQKELEEAKEKLARQHKRRSDDDDRSSDRKDGVLEEQIERLQEKVESAQSEQKNLFLVIFQRFIMILTEHLVRCETDGTSVLTPWYKNCIERLQQIFLQHHQIIQQYMVTLENLLFTAELDPHILAVFQQFCALQA chain 2: SGGLLKALRSDSYVELSQYRDQHFRGDNEEQEKLLKKSCTLYVGNLSFYTTEEQIYELFSKSGDIKKIIMGLDKMKKTACGFCFVEYYSRADAENAMRYINGTRLDDRIIRTDWDAGFKEGRQYGRGRSGGQVRDEYRQDYDAGRGGYGKLAQNQ |
